Data on 2 proteins can be found in patent US20260193623A1 (METAGENOMI, published 2026).

This data set deals with the molecule itself. The data set can be described thus: anti-HA immunoblot of lysates of transfected HEK293T cells; band at 2x the expected size (homodimer). As for the experimental part: FIGS. 35A-35C depict protein expression of MG153 GII derived RTs by immunoblots. Cells were transfected with plasmids containing the candidate RTs and protein expression was evaluated by immunoblot, detecting the HA peptide fused to the N termini of the RTs. All lanes were normalized to total protein concentration. White arrows point to bands at 2× the expected molecular size of the protein, which indicate protein dimers. Lanes not relevant for the described experiment in FIGS. 35A and 35B are covered by white boxes. FIG. 35C: Multiple sequence alignment of GII derived RT. The region shown corresponds to positions 196 through 201 of the alignment. The dimerization motif CAQQ (SEQ ID NO: 2267) is highlighted.
In order to understand protein expression and stability of the GII RTs in mammalian cells, immunoblots were performed. Briefly, transfected cells were lysed with RIPA lysis buffer supplemented with protease inhibitors (80 μL per well in a 24 well format). The lysate was centrifuged at 14,000 g for 10 min at 4° C. in order to remove insoluble aggregates. Proteins were quantified using BCA. […] Proteins were detected by using a rabbit HA antibody, using an HRP-based detection method. […] The expression of each protein was quantified and cDNA synthesis activity was normalized to total protein expression: seven MG153 RTs outperformed the TGIRT control (FIG. 36).
For orientation: A western blot detects proteins with antibodies after separation by electrophoresis.

B1: MG153-4 (enzyme)
chain: MDTSSLMEQILSKENLNEAYLQVVRNKGAAGVDGMSVEELGPYLSENGENIREQMRTRKYKPQPVRRVEIPKPDGGVRNLGVPTVVDRFVQQAVAQVLSPIFEEQFHDHSYGFRPNRCAQQAVLKALEMMNDGHNWIVDIDLAKFFDTVDHDKLMTIFGRTIKDGDVISLVRKFLVSGVMIDDEYEDTIVGTPQGGNISPLLANIMLNELDKELEARGLDFVRYADDLIIMVGSRQAAERVMKSVTRFIENKLGLKVNAEKSRVDKPKGIKYLGFGFYFDSFAKGYKARPHMKAVEKFKEQMKKLTCRSWGVSNTYKVKKLNQLIRGWINYFKIGSMKNLCRKLDAHIRFRLRMCIWKQWKTPKNREKNLIKLGLPRYAAHGISYAKGYARVCRSWNLHISISKERLAKFGLISMEDYYAERRVTC
notes: Group II intron class C RT, expressed in HEK293T cells as a Flag-HA-MCP fusion (expected 67.6 kDa including the tag); not shown: N-terminal Flag-HA-MCP tag
For B1, the binding result was “binds”.

B2: MG153-9 (enzyme)
chain: MESYLTQDRAEPEAGCGANSVSDTEGDGRTVQHDLVEEVVSWSNLEAALKQVVSNRGAPGVDGMTVDELGPWLETNYSELAEKVRNGRYRPNPVRRKEIPKPNGGVRDLGIPTVVDRLLQQAVSQVLMPIYEPSFSDTSYGFRPGRSAHDAIQKAKEYLSEGFGYVVDLDLARFFDTLNQDYLMNILRERVRDKALLELIKRFLRSGVVLPNGLLRETREGSPQGGPLSPLLSNIYLDRFDKLLESRGLRFVRYADDCLVFVRTPRAGERVRESVTRYLEGTLRLRVNQEKTVVGRADQVKFLGFRLYRQKTVGATVHDSSLARFRKEVRRITKRNRGTSLGSVLTELKTFTRGWVGYFRIGLSKSRAEKLDGWIRQRVRQYIFKQWKTLRNRASQLVSLCPDYLRPRPGFTPYSWVRECRRAAFSRSYWKAVNYPVVKRALSNSYLAGLGLYSLSEQLEKWNKGV
notes: Group II intron class C RT, expressed in HEK293T cells as a Flag-HA-MCP fusion (expected 72 kDa including the tag); not shown: N-terminal Flag-HA-MCP tag
Consider B2, for which the binding result is “binds”.
